According to patent CN108690134A (UNIV XIAMEN; YANG SHENG TANG CO LTD, dated 2018):

Biological target: T1, HBsAg (乙肝表面抗原) (Hepatitis B virus)
T1 chain: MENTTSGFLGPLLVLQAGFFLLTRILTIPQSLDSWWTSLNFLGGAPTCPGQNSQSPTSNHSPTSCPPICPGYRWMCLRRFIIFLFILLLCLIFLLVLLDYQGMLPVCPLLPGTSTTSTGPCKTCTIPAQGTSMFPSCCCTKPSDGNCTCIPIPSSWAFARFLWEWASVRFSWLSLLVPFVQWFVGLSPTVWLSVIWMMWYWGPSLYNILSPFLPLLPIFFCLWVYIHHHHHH
Assay: SPR, Biacore 3000, HBsAg immobilised on CM5 chip (2400 RU), antibody as analyte from 100 nM in 2-fold dilutions

B1: 人源化抗体M3D (antibody, V domains shown)
VH: QVQLQESGPGLVKPSGTLSLTCAVSGVSISSPYDWTWVRQPPGKGLEWIGRIHGNGGSTSYNPSLKSRVTISVDKSKNQFSLKLSSVTAADTAVYYCVRDETWGQGTLVTVSS
VL: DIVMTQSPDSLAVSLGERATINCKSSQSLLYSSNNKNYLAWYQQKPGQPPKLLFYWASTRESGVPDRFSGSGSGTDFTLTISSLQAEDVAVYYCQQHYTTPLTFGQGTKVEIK
notes: also called humanized M3-23
- Kd: 1.12 nM

B2: 人源化抗体M1D (antibody, V domains shown)
VH: QVQLQESGPGLVKPSETLSLTCTVSGGSITSNFWSWIRQPPGKGLEWIGYISGSGTYTDYNPSLKSRVTISVDTSKNQFSLKLSSVTAADTAVYYCARSHDYGSNDYAFDFWGQGTTVTVSS
VL: DIQMTQSPSSLSASVGDRVTITCRATQDISSSLNWYQQKPGKAPKLLIYYANRLQSGVPSRFSGSGSGTDFTLTISSLQPEDFATYYCQQYHSLPLTFGGGTKVEIK
notes: also called humanized M1-23
- Kd: 1.06 nM
